Blank lines part the entries; values can stand above or below the substance they belong to.
Legend:
[1] = molecular target: IR8 (90/b/73 R336I/R562K/R740A; del795-1688/Arg336Iso/Arg562Lys/Arg740Ala) (human) (UniProt P00451); assay: cell-based or functional assay
[2] = molecular target: wild-type factor VIII (FVIII WT) (human) (UniProt P00451); assay: cell-based or functional assay
[3] = molecular target: A1/A3-C1-C2 heterodimer of thrombin-cleaved FVIII (human) (UniProt P00451); assay: optical biosensor, purified protein after thrombin cleavage
A1/A3-C1-C2 heterodimer of thrombin-cleaved FVIII (human), sequence (P00451 20-391, chain 1 of 2): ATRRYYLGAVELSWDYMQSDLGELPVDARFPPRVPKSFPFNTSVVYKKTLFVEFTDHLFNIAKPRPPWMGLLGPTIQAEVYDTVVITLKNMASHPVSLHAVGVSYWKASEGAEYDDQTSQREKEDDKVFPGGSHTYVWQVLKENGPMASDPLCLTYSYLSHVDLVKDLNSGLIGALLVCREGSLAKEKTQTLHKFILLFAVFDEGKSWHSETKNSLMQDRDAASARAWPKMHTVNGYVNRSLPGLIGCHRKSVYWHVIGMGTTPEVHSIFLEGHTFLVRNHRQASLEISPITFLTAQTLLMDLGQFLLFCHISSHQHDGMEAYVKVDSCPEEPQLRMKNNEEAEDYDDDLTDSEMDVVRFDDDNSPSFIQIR
A1/A3-C1-C2 heterodimer of thrombin-cleaved FVIII (human), sequence (P00451 1709-2351, chain 2 of 2): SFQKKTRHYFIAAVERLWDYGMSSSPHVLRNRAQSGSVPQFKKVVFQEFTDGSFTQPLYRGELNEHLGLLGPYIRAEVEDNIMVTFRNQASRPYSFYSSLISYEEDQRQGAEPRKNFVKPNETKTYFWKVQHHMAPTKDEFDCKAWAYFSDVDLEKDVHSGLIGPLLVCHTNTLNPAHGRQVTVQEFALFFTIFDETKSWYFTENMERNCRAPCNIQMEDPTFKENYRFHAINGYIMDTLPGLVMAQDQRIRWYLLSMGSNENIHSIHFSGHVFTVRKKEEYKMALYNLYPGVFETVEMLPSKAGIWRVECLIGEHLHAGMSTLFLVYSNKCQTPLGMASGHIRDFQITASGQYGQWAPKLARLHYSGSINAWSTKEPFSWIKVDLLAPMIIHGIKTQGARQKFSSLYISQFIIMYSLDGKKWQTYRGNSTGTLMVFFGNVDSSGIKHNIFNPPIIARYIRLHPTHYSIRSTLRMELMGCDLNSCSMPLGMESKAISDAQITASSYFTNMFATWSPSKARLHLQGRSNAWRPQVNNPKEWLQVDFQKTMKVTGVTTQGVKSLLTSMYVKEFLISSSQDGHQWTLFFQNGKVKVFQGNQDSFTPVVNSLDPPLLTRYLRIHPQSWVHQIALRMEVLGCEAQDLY

[4] = molecular target: von Willebrand factor (vWF) (human) (UniProt P04275); assay: ELISA and affinity biosensor analysis
[5] = molecular target: von Willebrand factor (vWF) (human) (UniProt P04275); assay: summary of ELISA and biosensor results
[6] = molecular target: von Willebrand factor (vWF) (human) (UniProt P04275); assay: FVIII-vWF binding ELISA, anti-A2 domain trap, vWF from FVIII-deficient plasma, anti-vWF-HRP detection, no ESH8
[7] = molecular target: von Willebrand factor (vWF) (human) (UniProt P04275); assay: biosensor (SPR), IR8 captured on immobilized anti-fVIII antibody; without ESH8
vWF (human) [8] = molecular target: vWF (human) (UniProt P04275); assay: biosensor (SPR), IR8 captured on immobilized anti-fVIII antibody; with ESH8
vWF (human) [9] = molecular target: vWF (human) (UniProt P04275); assay: biosensor (SPR), fVIII captured on immobilized anti-fVIII antibody
[10] = molecular target: IR8 (90/b/73 R336I/R562K/R740A; del795-1688/Arg336Iso/Arg562Lys/Arg740Ala) (human) (UniProt P00451); assay: optical biosensor; IR8 (30 nM) captured on immobilized Mab NMC-VIII/5, vWF added at 10 nM
[11] = molecular target: IR8 (90/b/73 R336I/R562K/R740A; del795-1688/Arg336Iso/Arg562Lys/Arg740Ala) (human) (UniProt P00451); assay: optical biosensor; IR8 captured on immobilized Mab NMC-VIII/5, vWF added at 10 nM
[12] = molecular target: von Willebrand factor (vWF) (human) (UniProt P04275); assay: in vitro binding to vWF, method not named in the sentence (ELISA / affinity biosensor)
[13] = molecular target: von Willebrand factor (vWF) (human) (UniProt P04275); assay: FVIII-vWF binding ELISA, anti-A2 domain trap, vWF from FVIII-deficient plasma, anti-vWF-HRP detection, with ESH8

IR8 (90/b/73 R336I/R562K/R740A; del795-1688/Arg336Iso/Arg562Lys/Arg740Ala) (human), sequence (P00451 other isoform, or with tags, fused parts or gaps R336I R562K R740A R562K R740A R336I R562K R740A R562K R740A, form in doubt): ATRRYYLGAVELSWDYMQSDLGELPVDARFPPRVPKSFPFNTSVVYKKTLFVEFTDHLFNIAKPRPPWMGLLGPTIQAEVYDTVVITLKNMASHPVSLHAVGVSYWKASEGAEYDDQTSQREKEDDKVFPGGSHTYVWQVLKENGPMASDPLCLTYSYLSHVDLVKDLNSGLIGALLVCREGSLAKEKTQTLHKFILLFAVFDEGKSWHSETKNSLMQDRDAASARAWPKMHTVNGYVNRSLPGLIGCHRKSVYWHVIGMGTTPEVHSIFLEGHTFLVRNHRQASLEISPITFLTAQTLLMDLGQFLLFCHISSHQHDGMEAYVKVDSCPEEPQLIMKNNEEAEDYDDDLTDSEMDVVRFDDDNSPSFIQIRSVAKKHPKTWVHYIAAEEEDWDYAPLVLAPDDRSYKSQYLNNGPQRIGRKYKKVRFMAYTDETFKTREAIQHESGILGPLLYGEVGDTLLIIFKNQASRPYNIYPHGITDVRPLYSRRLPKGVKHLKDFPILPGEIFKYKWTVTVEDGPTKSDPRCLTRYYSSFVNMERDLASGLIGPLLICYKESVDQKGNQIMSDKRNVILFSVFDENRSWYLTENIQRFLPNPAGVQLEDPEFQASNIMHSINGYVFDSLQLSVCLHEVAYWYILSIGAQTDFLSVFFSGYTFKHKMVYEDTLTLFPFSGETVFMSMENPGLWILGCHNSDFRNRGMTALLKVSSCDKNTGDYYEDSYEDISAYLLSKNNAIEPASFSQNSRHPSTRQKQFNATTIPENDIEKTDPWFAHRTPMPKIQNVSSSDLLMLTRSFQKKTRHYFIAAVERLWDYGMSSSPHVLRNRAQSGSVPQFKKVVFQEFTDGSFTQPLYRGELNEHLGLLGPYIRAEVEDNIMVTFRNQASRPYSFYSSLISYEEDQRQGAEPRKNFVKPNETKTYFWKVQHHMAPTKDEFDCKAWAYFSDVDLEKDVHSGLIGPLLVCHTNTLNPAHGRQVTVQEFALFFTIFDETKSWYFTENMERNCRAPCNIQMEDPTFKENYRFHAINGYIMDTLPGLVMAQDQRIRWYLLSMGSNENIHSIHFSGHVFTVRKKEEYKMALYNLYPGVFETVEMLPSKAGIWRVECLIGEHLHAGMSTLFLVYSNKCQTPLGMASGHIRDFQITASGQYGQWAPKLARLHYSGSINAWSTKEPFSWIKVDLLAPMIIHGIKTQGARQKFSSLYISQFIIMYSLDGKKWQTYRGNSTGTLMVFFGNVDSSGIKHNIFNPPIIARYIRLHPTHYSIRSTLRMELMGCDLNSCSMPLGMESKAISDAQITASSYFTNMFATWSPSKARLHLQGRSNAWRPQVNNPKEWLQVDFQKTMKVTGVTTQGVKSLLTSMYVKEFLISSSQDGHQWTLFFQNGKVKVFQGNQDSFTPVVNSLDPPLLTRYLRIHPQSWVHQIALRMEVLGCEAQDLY
IR8/ESH8, sequence (P00451 whole entry, one chain of several): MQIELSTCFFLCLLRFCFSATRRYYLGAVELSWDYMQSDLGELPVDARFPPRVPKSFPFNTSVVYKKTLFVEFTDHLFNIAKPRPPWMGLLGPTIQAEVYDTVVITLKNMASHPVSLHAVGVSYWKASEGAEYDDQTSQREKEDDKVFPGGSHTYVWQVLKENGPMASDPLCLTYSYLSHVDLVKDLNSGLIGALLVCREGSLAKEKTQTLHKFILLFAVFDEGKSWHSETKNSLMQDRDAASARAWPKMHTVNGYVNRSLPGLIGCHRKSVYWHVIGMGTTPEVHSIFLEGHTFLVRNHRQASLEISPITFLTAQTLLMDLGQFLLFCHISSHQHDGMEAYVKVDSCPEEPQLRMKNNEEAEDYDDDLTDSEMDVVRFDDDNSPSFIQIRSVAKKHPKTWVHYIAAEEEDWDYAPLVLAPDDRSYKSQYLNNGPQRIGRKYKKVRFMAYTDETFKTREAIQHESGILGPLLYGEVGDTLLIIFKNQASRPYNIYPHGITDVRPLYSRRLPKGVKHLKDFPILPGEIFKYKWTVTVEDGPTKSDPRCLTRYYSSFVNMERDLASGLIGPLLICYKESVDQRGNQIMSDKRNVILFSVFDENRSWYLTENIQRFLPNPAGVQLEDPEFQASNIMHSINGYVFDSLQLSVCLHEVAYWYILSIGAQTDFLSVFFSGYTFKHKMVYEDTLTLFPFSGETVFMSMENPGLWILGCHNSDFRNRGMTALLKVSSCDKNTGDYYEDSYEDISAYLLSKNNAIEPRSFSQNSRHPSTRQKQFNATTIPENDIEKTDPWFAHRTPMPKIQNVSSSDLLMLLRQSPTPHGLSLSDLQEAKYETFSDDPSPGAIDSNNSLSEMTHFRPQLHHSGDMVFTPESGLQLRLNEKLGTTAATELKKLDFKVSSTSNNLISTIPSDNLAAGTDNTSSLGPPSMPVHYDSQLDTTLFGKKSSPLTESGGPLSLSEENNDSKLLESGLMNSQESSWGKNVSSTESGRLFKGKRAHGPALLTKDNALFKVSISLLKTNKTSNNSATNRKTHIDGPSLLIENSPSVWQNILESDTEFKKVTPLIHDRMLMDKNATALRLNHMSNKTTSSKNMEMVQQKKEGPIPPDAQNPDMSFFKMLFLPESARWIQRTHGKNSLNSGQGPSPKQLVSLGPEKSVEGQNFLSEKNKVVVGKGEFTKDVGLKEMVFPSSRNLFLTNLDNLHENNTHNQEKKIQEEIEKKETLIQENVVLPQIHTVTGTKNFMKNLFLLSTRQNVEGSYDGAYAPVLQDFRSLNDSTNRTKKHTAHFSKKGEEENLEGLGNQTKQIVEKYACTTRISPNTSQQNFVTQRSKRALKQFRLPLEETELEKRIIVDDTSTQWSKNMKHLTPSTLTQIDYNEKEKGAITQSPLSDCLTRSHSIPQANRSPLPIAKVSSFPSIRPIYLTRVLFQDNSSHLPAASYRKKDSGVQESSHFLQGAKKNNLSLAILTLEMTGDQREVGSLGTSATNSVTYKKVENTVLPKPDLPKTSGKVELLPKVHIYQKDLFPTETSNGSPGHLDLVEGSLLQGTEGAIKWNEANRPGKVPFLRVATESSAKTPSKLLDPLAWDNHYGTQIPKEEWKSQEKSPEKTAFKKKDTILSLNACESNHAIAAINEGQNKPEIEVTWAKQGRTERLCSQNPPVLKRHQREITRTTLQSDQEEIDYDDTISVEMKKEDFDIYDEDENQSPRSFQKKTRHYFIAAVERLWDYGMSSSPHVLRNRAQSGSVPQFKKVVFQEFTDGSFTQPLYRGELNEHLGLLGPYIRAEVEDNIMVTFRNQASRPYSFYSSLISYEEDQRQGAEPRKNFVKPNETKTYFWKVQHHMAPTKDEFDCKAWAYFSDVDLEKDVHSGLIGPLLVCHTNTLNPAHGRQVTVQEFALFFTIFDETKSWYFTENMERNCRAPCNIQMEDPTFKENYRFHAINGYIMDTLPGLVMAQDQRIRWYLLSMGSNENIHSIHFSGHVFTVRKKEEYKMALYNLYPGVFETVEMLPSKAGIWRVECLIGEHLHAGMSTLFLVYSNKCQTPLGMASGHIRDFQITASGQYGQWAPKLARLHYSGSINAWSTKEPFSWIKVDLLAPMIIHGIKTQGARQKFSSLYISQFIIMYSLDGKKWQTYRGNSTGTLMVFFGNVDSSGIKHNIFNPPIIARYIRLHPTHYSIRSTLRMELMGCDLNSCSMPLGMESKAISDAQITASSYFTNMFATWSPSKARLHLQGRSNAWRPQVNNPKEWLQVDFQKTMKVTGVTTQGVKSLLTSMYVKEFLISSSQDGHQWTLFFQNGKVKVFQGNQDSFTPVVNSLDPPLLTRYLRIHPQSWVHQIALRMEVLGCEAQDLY

Substance: ESH8, anti-light chain factor VIII mouse monoclonal antibody
% Of Initial Activity (APTT, 4 hour incubation at 37 C with FVIII-deficient plasma), + ESH8 (% of initial activity) [1]: 120 | % Of Initial Activity (APTT, 4 hour incubation at 37 C with FVIII-deficient plasma), + ESH8 (% of initial activity) [2]: 29

Substance: IR8 (90/b/73 R336I/R562K/R740A; del795-1688/Arg336Iso/Arg562Lys/Arg740Ala) (from UniProt P00451 20-759; P00451 1708-2351)
fold reduced affinity compared to rFVIII [4]: 20 fold | fold lower affinity than FVIII WT [5]: 10 fold | fold lower binding affinity compared to wild-type FVIII [6]: 10 fold | Kd [7]: 10.5 nM

Substance: pdfVIII
Kd (vWF (human) [9]): 0.31 nM

Substance: von Willebrand factor (vWF) (from UniProt P04275 764-2813)
kon [10]: 140000 M⁻¹ s⁻¹ | Kd [11]: 29.6 nM | koff [11]: 0.0042 s⁻¹

Substance: wild-type factor VIII (FVIII WT) (from UniProt P00451 20-2351)
Kd [12]: 0.3 nM

More lines, now with the values ahead:

fold increased rate of A2 subunit dissociation compared to a B domainless FVIII control [3]: 3 fold
Substance: A2 subunit of thrombin-cleaved R698W B-domainless FVIII (from UniProt P00451 392-759)

fold increased rate of A2 subunit dissociation compared to a B domainless FVIII control [3]: 2 fold
Substance: A2 subunit of thrombin-cleaved R698L B-domainless FVIII (from UniProt P00451 392-759)

koff (vWF (human) [8]): 0.0025 s⁻¹
Substance: IR8/ESH8 (from UniProt P00451 20-759; P00451 1708-2351)

fold lower binding affinity compared to wild-type FVIII [13]: 2 fold | Kd [12]: 1.3 nM
Substance: IR8/ESH8 complex (from UniProt P00451 20-759; P00451 1708-2351)

— patent US20120190623A1
